Source: US20260275311, “CRISPR NUCLEASE POLYPEPTIDES AND GENE EDITING SYSTEMS COMPRISING SUCH” (ARBOR BIOTECHNOLOGIES, INC., published 2026)
Numbering of substitutions follows the chain as printed.

T1: Nuclease A I67R (I67R)
T1 chain: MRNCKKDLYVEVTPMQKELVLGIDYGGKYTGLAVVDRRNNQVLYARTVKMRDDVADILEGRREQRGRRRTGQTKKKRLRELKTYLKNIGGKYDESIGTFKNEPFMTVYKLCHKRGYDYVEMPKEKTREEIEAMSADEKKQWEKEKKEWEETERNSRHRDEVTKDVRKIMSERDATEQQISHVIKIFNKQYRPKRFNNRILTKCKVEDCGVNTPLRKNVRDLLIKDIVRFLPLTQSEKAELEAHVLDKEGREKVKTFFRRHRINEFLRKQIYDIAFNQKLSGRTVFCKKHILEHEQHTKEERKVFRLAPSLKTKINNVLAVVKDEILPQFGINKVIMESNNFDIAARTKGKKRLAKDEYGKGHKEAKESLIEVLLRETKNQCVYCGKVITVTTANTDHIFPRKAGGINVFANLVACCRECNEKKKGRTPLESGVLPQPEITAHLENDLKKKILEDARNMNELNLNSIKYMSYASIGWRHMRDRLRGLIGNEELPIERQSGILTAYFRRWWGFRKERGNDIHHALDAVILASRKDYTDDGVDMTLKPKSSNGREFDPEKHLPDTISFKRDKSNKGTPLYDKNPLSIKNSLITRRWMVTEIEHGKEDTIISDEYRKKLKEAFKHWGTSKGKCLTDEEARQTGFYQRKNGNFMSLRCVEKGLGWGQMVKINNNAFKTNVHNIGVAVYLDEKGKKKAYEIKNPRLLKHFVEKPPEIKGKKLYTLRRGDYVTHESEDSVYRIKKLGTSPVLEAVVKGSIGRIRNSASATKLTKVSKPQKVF

T2: Nuclease A I67R/D568R/E706R
T2 chain: T1 chain with D568R, E706R

T3: Nuclease A
T3 chain: T1 chain with R67I

B1: Nuclease A AAVS1-T3 guide ; AAVS1-T3 target (ssRNA ; dsDNA)
RNA: UUGUGAGAAUGGUGCGUCCUGUUACAGUUAAGGCUCUUUGGAAACAAAGAAGCCUUAAUUGUAAAACGCCUAUAUGGUAAAGUGAUGUACGUUUGGGUAUAUAUCGCCAGCCUGAACCUCUACGCCAGAAAUGGCAGCUUUAUCAUGGGUUAGGACGAUAUUUAAAAAACUUUCUGCGGCUUGCUUACUUUAGUAAGCUUUGUGGCUGAGGCAGAAUUCCUU
DNA 1: TTGTGAGAATGGTGCGTCCT
DNA 2: AGGACGCACCATTCTCACAA
B2: Nuclease A VEGFA-T6 guide ; VEGFA-T6 target (ssRNA ; dsDNA)
RNA: UUUGCCCAUACUGGGGACCAGUUACAGUUAAGGCUCUUUGGAAACAAAGAAGCCUUAAUUGUAAAACGCCUAUAUGGUAAAGUGAUGUACGUUUGGGUAUAUAUCGCCAGCCUGAACCUCUACGCCAGAAAUGGCAGCUUUAUCAUGGGUUAGGACGAUAUUUAAAAAACUUUCUGCGGCUUGCUUACUUUAGUAAGCUUUGUGGCUGAGGCAGAAUUCCUU
DNA 1: TTTGCCCATACTGGGGACCA
DNA 2: TGGTCCCCAGTATGGGCAAA

Legend:
Settings in all cases: tags: N-terminal SV40 NLS, C-terminal XTEN linker + nucleoplasmin NLS
Nuclease A I67R = molecular target: T1, Nuclease A I67R; assay: cell_activity; PAM NGG; HEK293T
[1] = molecular target: T2, Nuclease A I67R/D568R/E706R; assay: cell_activity; PAM NGG (AGG); HEK293T
Protocol: (§1) Approximately 16 hours prior to transfection, 25,000 HEK293T cells in DMEM/10% FBS+Pen/Strep (D10 media) were plated into each well of a 96-well plate. On the day of transfection, the cells were 50-90% confluent. For each well to be transfected, a mixture of Lipofectamine 2000™ (ThermoFisher Scientific) and Opti-MEM™ (ThermoFisher Scientific) was prepared and incubated at room temperature for 5 minutes (Solution 1). After incubation, the Lipofectamine 2000™: Opti-MEM™ mixture was added to a separate mixture containing the CRISPR nuclease plasmid (NLS-tagged), RNA guide plasmid, and Opti-MEM™ (Solution 2). In the case of negative controls, the CRISPR nuclease plasmid was excluded. Solutions 1 and 2 were mixed by pipetting up and down, then incubated at room temperature for 25 minutes. Following incubation, the Solution 1 and 2 mixture was added dropwise to each well of a 96-well plate containing the cells. Approximately 72 hours post transfection, cells were trypsinized by adding TrypLE™ (ThermoFisher Scientific) to the center of each well and incubating at 37° C. for approximately 5 minutes. D10 media was then added to each well and mixed to resuspend cells. The resuspended cells were centrifuged for 10 minutes to obtain a pellet, and the supernatant was discarded. The cell pellet was then resuspended in QuickExtract™ buffer (Lucigen®), and cells were incubated at 65° C. for 15 minutes, 68° C. for 15 minutes, and 98° C. for 10 minutes.
(§2) Each Nuclease A variant and RNA guide (see Table 5) was cloned as described in Example 2. HEK293T cells were further transfected, followed by NGS analysis, as described in Example 2. For each target, indel ratios, referring to the percentage of NGS reads comprising indels, were calculated for Nuclease A (SEQ ID NO: 1) and for each variant of Nuclease A. The indel ratios shown in Table 6 were calculated as the average of two bioreplicates, each of which contained two technical replicates.

Nuclease A = molecular target: T3, Nuclease A; assay: cell_activity; PAM NGG (AGG); HEK293T
Protocol: as §1, §2

| Binder | binding signal (Nuclease A I67R) | activity [1] | activity (Nuclease A) |
| --- | --- | --- | --- |
| B1 | 7.07 fold vs Nuclease A | 0.37 indel ratio | 0.044 indel ratio |
| B2 | 4.43 fold vs Nuclease A | 0.325 indel ratio | 0.049 indel ratio |
